The source of these data is patent US20220088180A1.

Usually IC50 stands for the point on the concentration scale where inhibition reaches its midpoint. Low readings indicate greater potency in that assay, high ones weaker potency in that assay.

What all share (assay): radioligand competition, purified MHC
Experiment [1] has as its target HLA-A*01:01 (human).
Experiment [2] concerns the target HLA-A*02:01 (human).
Experiment [3] addresses HLA-A*26:01 (human).
Experiment [4] addresses HLA-B*07:02 (human).
For experiment [5], the target named is HLA-B*15:01 (human).
Experiment [6] addresses HLA-B*18:01 (human).
The target in experiment [7] is HLA-B*44:02 (human).
The target in experiment [8] is HLA-B*44:03 (human).
In experiment [9] the target is HLA-B*51:01 (human).
Where [10] appears, read: remark: other sources report otherwise.

Read-outs that look alike come from different tables or passages of the source.

Consider VGYLQPRTF (modifications not checked) [… (SEQ ID NO: 39)], for which the IC50 in experiment [1] was > 70 µM; in experiment [2], > 70 µM; in experiment [3] it was > 70 µM; in experiment [4] it was > 70 µM; in experiment [5], 0.777 µM; in [6], 0.707 µM. Also, the IC50 in [7] and in experiment [8] was > 70 µM in each case.
With MLLGSMLYM (modifications not checked) [… (SEQ ID NO: 4)], the IC50 in experiment [2] was < 0.0005 µM; in experiment [3] it was 45.5 µM; in experiment [5], 0.0011 µM; in experiment [7], 18.9 µM; in [9] it was 7.87 µM.
As to STSAFVETV (modifications not checked) [… (SEQ ID NO: 19)], the IC50 in experiment [1] was 12.7 µM; in [2], 0.026 µM; in [3], 12.1 µM; in experiment [4], 8.86 µM; in experiment [5] it was 10.4 µM; in experiment [6], > 70 µM. The IC50 in [7], in [8] and in [9] was > 70 µM each time.
On to KAFQLTPIAV (modifications not checked) [… (SEQ ID NO: 13)], for which the concentration for half-maximal inhibition (IC50) in experiment [1] is > 70 µM; in [2], 0.0078 µM; in experiment [3], > 70 µM; in [4], 8.6 µM; in experiment [5], 1.2 µM; in experiment [6], 3.87 µM. Further, the IC50 in [7] was > 70 µM; in [8] it was 16.4 µM; in experiment [9], 38.7 µM.
For the molecule GPMVLRGLIT (modifications not checked) [… (SEQ ID NO: 6)], the IC50 in [2] worked out at 2 µM; in [3] it was 0.884 µM; in experiment [5] it was 8.55 µM.
In the case of LATNNLVVM (modifications not checked) [… (SEQ ID NO: 16)], the concentration for half-maximal inhibition (IC50) in experiment [1] was > 70 µM; in experiment [2], > 70 µM; in experiment [3], > 70 µM; in [4] it was 0.055 µM; in experiment [5], 0.315 µM; in [6], > 70 µM. Besides, the values for the IC50 in experiment [7], in experiment [8] and in experiment [9] were 40.2 µM, 46.5 µM and 32.7 µM, respectively.
Consider APHGHVMVEL (modifications not checked) [… (SEQ ID NO: 14)], for which the concentration for half-maximal inhibition (IC50) in experiment [1] is > 70 µM; in experiment [2], > 70 µM; in [3] it was > 70 µM; in [4], 0.0061 µM; in experiment [5] it was > 70 µM; in experiment [6], > 70 µM. Moreover, the IC50 in experiment [7], in [8] and in [9] was > 70 µM in each case.
Turning to KRVDWTIEY (modifications not checked) [… (SEQ ID NO: 29)], the IC50 in [1] (setting [10]) is > 70 µM; in experiment [2] (setting [10]), > 70 µM; in [3] (setting [10]), > 70 µM; in [4], > 70 µM; in [5] (setting [10]) it was 0.356 µM; in [6] (setting [10]), > 70 µM. In addition, the results for the IC50 in [7] (setting [10]), in experiment [8] (setting [10]) and in experiment [9] (setting [10]) were > 70 µM, > 70 µM and 22.7 µM, respectively.
With QLTPTWRVY (modifications not checked) [… (SEQ ID NO: 38)], the IC50 in [1] was > 70 µM; in experiment [2], > 70 µM; in experiment [3], > 70 µM; in experiment [4], > 70 µM; in [5], 0.011 µM; in experiment [6], > 70 µM. Besides, the IC50 in experiment [7], in experiment [8] and in experiment [9] was > 70 µM in each case.
With SEFSSLPSY (modifications not checked) [… (SEQ ID NO: 27)], the IC50 in experiment [1] is 39.8 µM; in [2], > 70 µM; in [3] it was 0.875 µM; in [4] it was > 70 µM; in experiment [5] it was 0.0069 µM; in [6], 0.00037 µM. Further, the IC50 in experiment [9] is > 70 µM.
In the case of IRQEEVQEL (modifications not checked) [… (SEQ ID NO: 31)], the IC50 in experiment [1], in experiment [2], in experiment [3], in experiment [4], in experiment [5] and in experiment [6] was > 70 µM in each case. In addition, the IC50 in [7], in experiment [8] and in [9] was > 70 µM throughout.
Turning to DEFVVVTV (modifications not checked) [DEFVVVTV (SEQ ID NO: 11)], the IC50 in experiment [1] was > 70 µM; in experiment [2], 13 µM; in [3], 9.55 µM; in experiment [4] it was 52.8 µM; in experiment [5], 2.05 µM; in experiment [6], < 0.0005 µM. In addition, the IC50 is 2.79 µM in [7], 1.28 µM in [8] and 12.8 µM in experiment [9].
On to APRITFGGP (modifications not checked) [… (SEQ ID NO: 42)], for which the IC50 in experiment [1] was > 70 µM; in [2] it was 0.893 µM; in experiment [3], > 70 µM; in experiment [4], 0.059 µM; in [5], > 70 µM; in [6], > 70 µM. Besides, the IC50 in experiment [7], in experiment [8] and in [9] was > 70 µM each time.
Regarding SLEDKAFQL (modifications not checked) [… (SEQ ID NO: 7)], the results for the IC50 in experiment [2] and in [5] were 0.02 µM and 1.58 µM, respectively.
With NATNVVIKV (modifications not checked) [… (SEQ ID NO: 37)], the IC50 in experiment [1] is > 70 µM; in [3], 43.4 µM; in experiment [4] it was > 70 µM; in [5], > 70 µM; in experiment [6] it was > 70 µM; in experiment [7], > 70 µM. For the same molecule, the IC50 in [8] is 8.11 µM; in [9], 0.536 µM.
Take YLNSTNVTI (modifications not checked) [… (SEQ ID NO: 24)]: the IC50 stood at 0.012 µM in experiment [2]; 7.93 µM in experiment [4]; 0.0012 µM in experiment [5]; 49.6 µM in experiment [8]; 3.62 µM in experiment [9].
Turning to LEDKAFQL (modifications not checked) [LEDKAFQL (SEQ ID NO: 10)], the concentration for half-maximal inhibition (IC50) is 3.89 µM in [2]; 14.7 µM in [5]; 0.035 µM in experiment [6]; 35.4 µM in experiment [7]; 0.208 µM in [8].
Take KNIDGYFKIY (modifications not checked) [… (SEQ ID NO: 36)]: the IC50 in experiment [1] is > 70 µM; in [2] it was 11.8 µM; in [3] it was > 70 µM; in experiment [4], > 70 µM; in [5] it was 1.45 µM; in [6], > 70 µM. The IC50 in experiment [7], in experiment [8] and in experiment [9] was > 70 µM in each case.
Consider ELPDEFVVVTV (modifications not checked) [… (SEQ ID NO: 8)], for which the IC50 in experiment [1] is > 70 µM; in [2] it was 0.0016 µM; in experiment [3] it was 0.072 µM; in experiment [4], > 70 µM; in experiment [5] it was 35.1 µM; in experiment [6], 1.13 µM. Moreover, the IC50 in experiment [7], in experiment [8] and in experiment [9] was > 70 µM throughout.
For the molecule GLITLSYHL (modifications not checked) [… (SEQ ID NO: 5)], the IC50 in experiment [2] was < 0.0005 µM; in experiment [3], 40.3 µM; in experiment [4], 14.3 µM; in [5], 1.5 µM; in experiment [7], 26 µM; in experiment [8] it was 24.3 µM.
On to FGDDTVIEV (modifications not checked) [… (SEQ ID NO: 23)], for which the IC50 in [1] (setting [10]) is > 70 µM; in experiment [3] (setting [10]), > 70 µM; in experiment [4], > 70 µM; in experiment [5] (setting [10]), 2.38 µM; in experiment [6] (setting [10]) it was > 70 µM; in experiment [7] (setting [10]), > 70 µM. Also, the IC50 in experiment [8] (setting [10]) was > 70 µM; in experiment [9] (setting [10]) it was 45.7 µM.
Consider EIKESVQTF (modifications not checked) [… (SEQ ID NO: 15)], for which the half-maximal inhibitory concentration (IC50) is > 70 µM in experiment [1]; > 70 µM in experiment [2]; 0.0078 µM in experiment [3]; > 70 µM in [4]; 4.93 µM in [5]; > 70 µM in experiment [6]. Also, the IC50 in experiment [7] was 37.2 µM; in [8] it was > 70 µM; in [9], > 70 µM.
Turning to HADQLTPTW (modifications not checked) [… (SEQ ID NO: 35)], the IC50 in experiment [5] turned out to be 13.4 µM; in experiment [6] it was 3.35 µM; in [7], 5.26 µM; in experiment [8], 1.8 µM.
Turning to ELPDEFVVV (modifications not checked) [… (SEQ ID NO: 12)], the IC50 was > 70 µM in experiment [1]; 0.46 µM in [2]; 6.86 µM in experiment [3]; > 70 µM in experiment [4]; > 70 µM in [5]; > 70 µM in experiment [6]. In addition, the IC50 in experiment [7], in [8] and in [9] was > 70 µM throughout.
